Where “and” joins values, the source holds several entries; their conditions need not be identical. Equal entries are not always repeated. No end group written: not given here. *: point of attachment. Biotin = O=C1N[C@H]2[C@H](CS[C@H]2CCCCC(=O)*)N1
B1: bovine Ric8A1–492 (domain or fragment, UniProt Q5E9J8 1-492, looked up)
chain: MEPRAVADALETGEEDVVMEALRAYNRENSQSFTFDDAQQEDRKRLAKLLVSVLEQGLPPSRRVIWLQSIRILSRDRSCLDSFTSRRSLQALACYAGISASQGSVPEPLNMDVVLESLKCLCNLVLSSPVAQALAAEAGLVVRLAERVGLCRQSSFPHDVQFFDLRLLFLLTALRTDVRQQLFQELQGVRLLTRALELTLGMTEGERHPELLPPQETERAMEILKVLFNITFDSIKREVDEEDAALYRHLGTLLRHCVMLAAAGDRTEELHGHAVNLLGNLPVKCLDVLLTLEPHEGSLEFLGVNMDVIRVLLSFMEKRLHQTHRLKESVAPVLSVLTECARMHRPARKFLKAQVLPPLRDVRTRPEVGELLRNKLVRLMTHLDTDVKRVAAEFLFVLCSESVPRFIKYTGYGNAAGLLAARGLMAGGRPEGQYSEDEDTDTDEYKEAKASINPVTGRVEEKPPNPMEGMTEEQKEHEAMKLVNMFDKLSRH
B3: Gαt333–350 (peptide, UniProt P04695 333-350, looked up)
peptide: Biotin-DAVTDIIIKENLKDCGLF
notes: also called 18-mer C-terminal peptide of Gαt; biotinylated Gαt333–350

How the values were obtained:
Details in all cases: both partners purified
Gαt333–350 = biological target: B3; assay: differential scanning fluorimetry; Ric8A constructs at 0.5 mg/ml with or without 50 µM peptide, Sypro Orange, 20 mM Tris-HCl pH 7.5, 150 mM KCl, 5% glycerol, 1 mM TCEP
MBP-Gαt327–350 = biological target: T1, MBP-Gαt327–350 (UniProt P04695 327-350); assay: SEC; Ric8A1–492 mixed with GB1-Gαt340–350 or MBP-Gαt327–350; elution profiles
T1 construct: In pET15b; also called 24 C-terminal residues of Gαt fused to MBP; tagged C-terminal fragment of Gα; source: E. coli BL21(DE3), purified (Ni-NTA, SEC); not shown: MBP (E. coli MBP28–394 with D110A/K111A/E200A/N201A/A243H/K247H/K267A, joined by an AAAH linker), N-terminal, kept
T1 chain (looked up): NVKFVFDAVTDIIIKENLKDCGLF

GB1-Gαt340–350 = biological target: T2, GB1-Gαt340–350 (UniProt P04695 340-350); assay: as above
T2 construct: transducin-α (Gαt, Gαt1), the 11 C-terminal residues 340-350; Cloned into a modified pQE30 vector containing the GB1 tag; also called 11 C-terminal residues of Gαt fused to the B1 domain of Streptococcal protein G; source: E. coli BL21(DE3); purification not described
T2 chain (looked up): IKENLKDCGLF

Gαs363–380 = biological target: T3, Gαs363–380 (UniProt P63092-2 363-380); assay: BLI; N-terminally biotinylated Gα peptides on streptavidin biosensors, Ric8A proteins in solution; Octet RED96, 26 °C, 20 mM Tris, 150 mM KCl, 5% glycerol, 1 mM TCEP, 0.5 mg/ml BSA, pH 8.0; kinetic fit (1:1 model) and steady-state fit (one site)
T3 construct: Gαs, C-terminal 18 residues 363-380; the numbers fit the 380-residue short form; also called peptide comprised of the C-terminal 18 residues of Gαs; Gαs C-terminal peptide
T3 peptide (looked up): Biotin-NDCRDIIQRMHLRQYELL

bovine Ric8A1–492 [1] = biological target: B1; assay: BLI; full-length Avi-tagged Gαt on streptavidin biosensors, Ric8A1–492 proteins in solution; 26 °C, 20 mM Tris, 150 mM KCl, 5% glycerol, 1 mM TCEP, 0.5 mg/ml BSA, pH 8.0; steady-state fit
bovine Ric8A1–492 [2] = biological target: B1; assay: BLI; N-terminally biotinylated Gα peptides on streptavidin biosensors, Ric8A proteins in solution; Octet RED96, 26 °C, 20 mM Tris, 150 mM KCl, 5% glycerol, 1 mM TCEP, 0.5 mg/ml BSA, pH 8.0; kinetic fit (1:1 model) and steady-state fit (one site)

B1
shift of Tm (Gαt333–350): ~9 °C
stoichiometry N (MBP-Gαt327–350): ~1
stoichiometry N (GB1-Gαt340–350): ~1
fold lower affinity than to Gαt333–350 (Gαs363–380): ~18 fold

B2: full-length Avi-tagged Gαt (natural protein)
chain: MGAGASAEEKHSRELEKKLKEDAEKDARTVKLLLLGAGESGKSTIVKQMKIIHQDGYSLEECLEFIAIIYGNTLQSILAIVRAMTTLNIQYGDSARQDDARKLMHMADTIEEGTMPKEMSDIIQRLWKDSGIQACFDRASEYQLNDSAGYYLSDLERLVTPGYVPTEQDVLRSRVKTTGIIETQFSFKDLNFRMFDVGGQRSERKKWIHCFEGVTAIIFCVALSDYDLVLAEDEEMNRMHESMKLFDSICNNKWFTDTSIILFLNKKDLFEEKIKKSPLTICYPEYAGSNTYEEAGNYIKVQFLELNMRRDVKEIYSHMTCATDTQNVKFVFDAVTDIIIKENLKDCGLF
modifications: biotin on the Avi tag (cells grown in media supplemented with biotin)
Kd (bovine Ric8A1–492 [1]): 0.024 µM

B3
Kd (bovine Ric8A1–492 [2]): 0.24 µM and 0.28 µM and 0.27 µM
koff (bovine Ric8A1–492 [2]): 0.031 s⁻¹
kon (bovine Ric8A1–492 [2]): 130000 M⁻¹ s⁻¹

B4: peptide C2 (peptide)
peptide: Biotin-NDCRDIIIRMNLRQCGLF
modifications: cysteine pairing not given here
notes: Gαs C-terminal 18-mer without its last four residues, with Q370I and H373N; the numbers fit the 380-residue short form; the four C-terminal residues of Gαt; Peptide C1 with two additional substitutions
binding result (bovine Ric8A1–492 [2]): binds

B5: Avi-tagged I340Q/N343H mutant of Gαt (natural protein)
chain: MGAGASAEEKHSRELEKKLKEDAEKDARTVKLLLLGAGESGKSTIVKQMKIIHQDGYSLEECLEFIAIIYGNTLQSILAIVRAMTTLNIQYGDSARQDDARKLMHMADTIEEGTMPKEMSDIIQRLWKDSGIQACFDRASEYQLNDSAGYYLSDLERLVTPGYVPTEQDVLRSRVKTTGIIETQFSFKDLNFRMFDVGGQRSERKKWIHCFEGVTAIIFCVALSDYDLVLAEDEEMNRMHESMKLFDSICNNKWFTDTSIILFLNKKDLFEEKIKKSPLTICYPEYAGSNTYEEAGNYIKVQFLELNMRRDVKEIYSHMTCATDTQNVKFVFDAVTDIIQKEHLKDCGLF
modifications: biotin on the Avi tag (cells grown in media supplemented with biotin)
Kd (bovine Ric8A1–492 [1]): 2.3 µM

B6: peptide C1 (peptide)
peptide: Biotin-NDCRDIIQRMHLRQCGLF
modifications: cysteine pairing not given here
notes: Gαs C-terminal 18-mer without its last four residues; the numbers fit the 380-residue short form; the four C-terminal residues of Gαt; also called chimeric C-terminal peptide of Gαs ending in CGLF
binding result (bovine Ric8A1–492 [2]): binds
